Results from publication PMC10397247.
Each block holds one binder with its values, some of them ahead of it.

What was measured:
4H906-bH = target: T1, 4H906-bH; test: two-hybrid library CCNG1;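 also: natural log of median RNA to DNA barcode read ratio; higher means stronger binding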
T1 chain: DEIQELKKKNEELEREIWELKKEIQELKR

4H3974-bH = target: T2, 4H3974-bH; test: two-hybrid library CCNG1;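 also: natural log of median RNA to DNA barcode read ratio; higher means stronger binding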
T2 chain: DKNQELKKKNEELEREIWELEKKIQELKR

4H3817-bH = target: T3, 4H3817-bH; test: two-hybrid library CCNG1;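 also: natural log of median RNA to DNA barcode read ratio; higher means stronger binding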
T3 chain: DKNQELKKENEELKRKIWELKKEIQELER

4H584-bH = target: T4, 4H584-bH; test: two-hybrid library CCNG1;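 also: natural log of median RNA to DNA barcode read ratio; higher means stronger binding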
T4 chain: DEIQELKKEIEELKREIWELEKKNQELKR

4H3858-bH = target: T5, 4H3858-bH; test: two-hybrid library CCNG1;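 also: natural log of median RNA to DNA barcode read ratio; higher means stronger binding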
T5 chain: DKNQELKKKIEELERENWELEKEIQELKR

4H570-bH = target: T6, 4H570-bH; test: two-hybrid library CCNG1;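 also: natural log of median RNA to DNA barcode read ratio; higher means stronger binding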
T6 chain: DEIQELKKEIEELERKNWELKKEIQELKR

4H4073-bH = target: T7, 4H4073-bH; test: two-hybrid library CCNG1
T7 chain: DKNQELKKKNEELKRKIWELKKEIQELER

4H619-bH = target: T8, 4H619-bH; test: two-hybrid library CCNG1
T8 chain: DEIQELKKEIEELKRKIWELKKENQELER

4H850-bH = target: T9, 4H850-bH; test: two-hybrid library CCNG1
T9 chain: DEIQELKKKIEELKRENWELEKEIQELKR

4H310-AA = target: T10, 4H310-AA; test: two-hybrid library CCmax; settings: mean of both orientations
T10 chain: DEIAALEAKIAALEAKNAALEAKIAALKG

4H2109-AA = target: T11, 4H2109-AA; test: two-hybrid library CCmax
T11 chain: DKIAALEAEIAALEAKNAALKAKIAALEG

4H570-AA = target: T12, 4H570-AA; test: two-hybrid library CCmax; settings: mean of both orientations
T12 chain: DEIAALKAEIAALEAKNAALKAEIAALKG

4H3865-AA = target: T13, 4H3865-AA; test: two-hybrid library CCmax
T13 chain: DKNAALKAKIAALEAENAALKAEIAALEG

4H485-AA = target: T14, 4H485-AA; test: two-hybrid library CCmax; settings: mean of both orientations
T14 chain: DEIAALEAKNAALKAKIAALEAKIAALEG

4H629-AA = target: T15, 4H629-AA; test: two-hybrid library CCmax; settings: mean of both orientations
T15 chain: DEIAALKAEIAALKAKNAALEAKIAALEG

4H3590-AA = target: T16, 4H3590-AA; test: two-hybrid library CCmax; settings: mean of both orientations
T16 chain: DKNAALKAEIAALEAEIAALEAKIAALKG

4H710-AA = target: T17, 4H710-AA; test: two-hybrid library CCmax; settings: mean of both orientations
T17 chain: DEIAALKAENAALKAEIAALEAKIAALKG

4H3381-AA = target: T18, 4H3381-AA; test: two-hybrid library CCmax; settings: mean of both orientations
T18 chain: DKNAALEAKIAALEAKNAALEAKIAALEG

4H458-AA = target: T19, 4H458-AA; test: two-hybrid library CCmax; settings: mean of both orientations
T19 chain: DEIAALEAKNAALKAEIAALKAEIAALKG

4H3009-AA = target: T20, 4H3009-AA; test: two-hybrid library CCmax; settings: mean of both orientations
T20 chain: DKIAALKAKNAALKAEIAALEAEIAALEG

4H3697-AA = target: T21, 4H3697-AA; test: two-hybrid library CCmax; settings: mean of both orientations
T21 chain: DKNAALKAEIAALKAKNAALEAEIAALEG

4H3130-AA = target: T22, 4H3130-AA; test: two-hybrid library CCmax; settings: mean of both orientations
T22 chain: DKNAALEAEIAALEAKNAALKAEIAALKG

4H2473-AA = target: T23, 4H2473-AA; test: two-hybrid library CCmax; settings: mean of both orientations
T23 chain: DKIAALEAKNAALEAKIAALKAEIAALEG

4H2865-AA = target: T24, 4H2865-AA; test: two-hybrid library CCmax; settings: mean of both orientations
T24 chain: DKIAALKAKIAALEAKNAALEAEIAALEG

4H2649-AA = target: T25, 4H2649-AA; test: two-hybrid library CCmax; settings: mean of both orientations
T25 chain: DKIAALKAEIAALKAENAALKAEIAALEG

4H3016-AA = target: T26, 4H3016-AA; test: two-hybrid library CCmax; settings: mean of both orientations
T26 chain: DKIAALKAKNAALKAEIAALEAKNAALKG

4H891-AA = target: T27, 4H891-AA; test: two-hybrid library CCmax; settings: mean of both orientations
T27 chain: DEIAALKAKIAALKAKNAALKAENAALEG

4H2725-AA = target: T28, 4H2725-AA; test: two-hybrid library CCmax; settings: mean of both orientations
T28 chain: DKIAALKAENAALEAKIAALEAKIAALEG

4H536-AA = target: T29, 4H536-AA; test: two-hybrid library CCmax; settings: mean of both orientations
T29 chain: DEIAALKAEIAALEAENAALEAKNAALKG

4H850-AA = target: T30, 4H850-AA; test: two-hybrid library CCmax; settings: mean of both orientations
T30 chain: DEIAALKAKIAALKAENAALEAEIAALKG

4H3753-AA = target: T31, 4H3753-AA; test: two-hybrid library CCmax; settings: mean of both orientations
T31 chain: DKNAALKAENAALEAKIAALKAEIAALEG

4H2698-AA = target: T32, 4H2698-AA; test: two-hybrid library CCmax; settings: mean of both orientations
T32 chain: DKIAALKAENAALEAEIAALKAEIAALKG

4H3120-AA = target: T33, 4H3120-AA; test: two-hybrid library CCmax; settings: mean of both orientations
T33 chain: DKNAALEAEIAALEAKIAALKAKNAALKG

4H797-AA = target: T34, 4H797-AA; test: two-hybrid library CCmax; settings: mean of both orientations
T34 chain: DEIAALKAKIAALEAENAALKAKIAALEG

4H2253-AA = target: T35, 4H2253-AA; test: two-hybrid library CCmax; settings: mean of both orientations
T35 chain: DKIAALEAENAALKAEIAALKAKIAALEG

4H94-AA = target: T36, 4H94-AA; test: two-hybrid library CCmax; settings: mean of both orientations
T36 chain: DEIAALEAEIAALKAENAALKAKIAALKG

4H2389-AA = target: T37, 4H2389-AA; test: two-hybrid library CCmax; settings: mean of both orientations
T37 chain: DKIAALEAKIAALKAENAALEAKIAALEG

4H2438-AA = target: T38, 4H2438-AA; test: two-hybrid library CCmax; settings: mean of both orientations
T38 chain: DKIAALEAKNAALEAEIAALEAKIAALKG

4H3165-AA = target: T39, 4H3165-AA; test: two-hybrid library CCmax; settings: mean of both orientations
T39 chain: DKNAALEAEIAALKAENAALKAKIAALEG

4H3395-AA = target: T40, 4H3395-AA; test: two-hybrid library CCmax; settings: mean of both orientations
T40 chain: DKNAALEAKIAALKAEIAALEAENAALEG

4H930-AA = target: T41, 4H930-AA; test: two-hybrid library CCmax; settings: mean of both orientations
T41 chain: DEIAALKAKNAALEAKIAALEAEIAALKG

4H909-AA = target: T42, 4H909-AA; test: two-hybrid library CCmax; settings: mean of both orientations
T42 chain: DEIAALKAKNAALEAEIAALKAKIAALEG

4H745-AA = target: T43, 4H745-AA; test: two-hybrid library CCmax; settings: mean of both orientations
T43 chain: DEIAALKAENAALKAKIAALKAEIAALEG

4H2162-AA = target: T44, 4H2162-AA; test: two-hybrid library CCmax; settings: mean of both orientations
T44 chain: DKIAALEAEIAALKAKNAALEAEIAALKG

4H3410-AA = target: T45, 4H3410-AA; test: two-hybrid library CCmax; settings: mean of both orientations
T45 chain: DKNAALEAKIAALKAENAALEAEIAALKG

4H2274-AA = target: T46, 4H2274-AA; test: two-hybrid library CCmax; settings: mean of both orientations
T46 chain: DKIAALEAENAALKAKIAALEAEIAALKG

4H2330-AA = target: T47, 4H2330-AA; test: two-hybrid library CCmax; settings: mean of both orientations
T47 chain: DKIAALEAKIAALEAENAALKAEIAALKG

4H626-bH = target: T48, 4H626-bH; test: two-hybrid library CCNG1
T48 chain: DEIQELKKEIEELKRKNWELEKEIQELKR

4H3628-bH = target: T49, 4H3628-bH; test: two-hybrid library CCNG1
T49 chain: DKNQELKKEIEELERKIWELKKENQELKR

4H591-bH = target: T50, 4H591-bH; test: two-hybrid library CCNG1
T50 chain: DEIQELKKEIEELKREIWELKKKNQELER

4H3926-bH = target: T51, 4H3926-bH; test: two-hybrid library CCNG1
T51 chain: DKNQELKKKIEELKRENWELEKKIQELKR

interaction score (4H906-bH): -0.699
interaction score (4H3974-bH): 0.787
interaction score (4H3817-bH): 0.775
interaction score (4H584-bH): -0.723
interaction score (4H3858-bH): -0.973
interaction score (4H570-bH): -0.71
interaction score (4H4073-bH): -1.13
interaction score (4H619-bH): 0.591
interaction score (4H850-bH): -0.885
Binder: DKNQELKKENEELKRKIWELKKEIQELER [4H3817-bH]

interaction score (4H310-AA): 1.94
interaction score (4H2109-AA): 1.67
interaction score (4H570-AA): -0.239
interaction score (4H3865-AA): -0.488
interaction score (4H485-AA): -0.723
interaction score (4H629-AA): 1.09
interaction score (4H3590-AA): 1.21
interaction score (4H710-AA): -1.26
interaction score (4H3381-AA): -0.283
interaction score (4H458-AA): -1.45
interaction score (4H3009-AA): -0.233
interaction score (4H3697-AA): -0.415
interaction score (4H3130-AA): -1.05
interaction score (4H2473-AA): -0.356
interaction score (4H2865-AA): 2.17
interaction score (4H2649-AA): 1.26
interaction score (4H3016-AA): -1.16
interaction score (4H891-AA): -1.3
interaction score (4H2725-AA): 0.465
interaction score (4H536-AA): 0.839
interaction score (4H850-AA): 2.07
interaction score (4H3753-AA): 0.644
interaction score (4H2698-AA): 1.53
interaction score (4H3120-AA): -0.474
interaction score (4H797-AA): 1.44
interaction score (4H2253-AA): -1.76
interaction score (4H94-AA): 1.43
interaction score (4H2389-AA): 2.49
interaction score (4H2438-AA): -0.365
interaction score (4H3165-AA): -0.391
interaction score (4H3395-AA): -0.63
interaction score (4H930-AA): -0.719
interaction score (4H909-AA): -0.525
interaction score (4H745-AA): -0.947
interaction score (4H2162-AA): 0.55
interaction score (4H3410-AA): 1.87
interaction score (4H2274-AA): -1.47
interaction score (4H2330-AA): 0.0427
Binder: DKIAALEAEIAALEAKNAALKAKIAALEG [4H2109-AA]

interaction score (4H906-bH): -0.107
interaction score (4H3974-bH): 1.22
interaction score (4H3817-bH): 0.965
interaction score (4H3858-bH): 0.42
interaction score (4H626-bH): -0.0728
interaction score (4H3628-bH): 0.896
interaction score (4H591-bH): 0.0937
interaction score (4H570-bH): -1.36
interaction score (4H3926-bH): 0.588
interaction score (4H850-bH): 0.701
Binder: DKNQELKKEIEELERKIWELKKENQELKR [4H3628-bH]
